According to paper PMC9832388, “A novel method for real-time analysis of the complement C3b:FH:FI complex reveals dominant negative CFI variants in age-related macular degeneration” (Frontiers in Immunology, 2022):

Biological target: C3b (UniProt P01024 23-667; P01024 749-1663)
Assay: cell-based or functional assay

Sequence of C3b (P01024 23-667, chain 1 of 2): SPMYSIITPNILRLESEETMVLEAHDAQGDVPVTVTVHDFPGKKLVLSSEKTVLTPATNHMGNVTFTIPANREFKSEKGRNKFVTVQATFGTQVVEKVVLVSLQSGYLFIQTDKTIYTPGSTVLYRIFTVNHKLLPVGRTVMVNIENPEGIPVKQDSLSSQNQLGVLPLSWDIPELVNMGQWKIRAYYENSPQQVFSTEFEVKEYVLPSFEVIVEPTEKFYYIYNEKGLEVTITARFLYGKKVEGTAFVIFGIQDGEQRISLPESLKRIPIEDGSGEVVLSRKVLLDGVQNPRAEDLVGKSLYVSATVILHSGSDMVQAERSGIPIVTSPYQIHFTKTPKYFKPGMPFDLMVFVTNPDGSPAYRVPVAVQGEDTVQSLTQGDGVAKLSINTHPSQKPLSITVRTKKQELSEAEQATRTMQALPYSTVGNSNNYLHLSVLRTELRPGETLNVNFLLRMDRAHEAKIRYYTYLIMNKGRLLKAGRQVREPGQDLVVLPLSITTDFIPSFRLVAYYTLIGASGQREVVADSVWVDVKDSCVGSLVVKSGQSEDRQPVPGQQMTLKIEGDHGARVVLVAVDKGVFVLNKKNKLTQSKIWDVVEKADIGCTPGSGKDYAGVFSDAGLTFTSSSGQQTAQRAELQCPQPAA
Sequence of C3b (P01024 749-1663, chain 2 of 2): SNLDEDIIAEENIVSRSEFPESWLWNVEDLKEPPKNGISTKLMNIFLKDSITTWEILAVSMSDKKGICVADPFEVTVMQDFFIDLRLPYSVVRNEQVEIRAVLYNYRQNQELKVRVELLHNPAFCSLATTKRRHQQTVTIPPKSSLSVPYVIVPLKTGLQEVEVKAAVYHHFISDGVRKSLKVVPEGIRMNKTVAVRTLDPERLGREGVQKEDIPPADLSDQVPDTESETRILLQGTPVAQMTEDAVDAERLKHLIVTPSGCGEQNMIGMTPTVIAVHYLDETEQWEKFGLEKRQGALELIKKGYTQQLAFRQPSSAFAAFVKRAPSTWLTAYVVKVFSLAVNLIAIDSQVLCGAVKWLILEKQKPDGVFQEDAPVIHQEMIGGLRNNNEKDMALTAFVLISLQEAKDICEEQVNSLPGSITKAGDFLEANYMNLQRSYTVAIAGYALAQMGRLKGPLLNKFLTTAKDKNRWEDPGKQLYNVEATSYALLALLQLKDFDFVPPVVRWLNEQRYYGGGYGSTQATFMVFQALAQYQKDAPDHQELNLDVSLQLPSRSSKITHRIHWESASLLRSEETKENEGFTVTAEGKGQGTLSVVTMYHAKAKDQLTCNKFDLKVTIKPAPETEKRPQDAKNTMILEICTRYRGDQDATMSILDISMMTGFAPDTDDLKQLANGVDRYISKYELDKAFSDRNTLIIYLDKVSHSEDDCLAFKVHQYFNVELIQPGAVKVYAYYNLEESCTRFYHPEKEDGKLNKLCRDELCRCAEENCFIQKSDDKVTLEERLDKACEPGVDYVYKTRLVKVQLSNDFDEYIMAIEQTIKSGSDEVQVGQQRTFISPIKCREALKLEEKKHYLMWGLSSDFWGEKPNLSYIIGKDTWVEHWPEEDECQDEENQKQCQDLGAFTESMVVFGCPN

inhibition of the activity of WT FI in a fluid phase CA assay with increasing I340T FI (~25% at equimolar, 30% at 2-fold molar): 30%
B1: I340T FI (enzyme, human)
chain 1: KVTYTSQEDLVEKKCLAKKYTHLSCDKVFCQPWQRCIEGTCVCKLPYQCPKNGTAVCATNRRSFPTYCQQKSLECLHPGTKFLNNGTCTAEGKFSVSLKHGNTDSEGIVEVKLVDQDKTMFICKSSWSMREANVACLDLGFQQGADTQRRFKLSDLSINSTECLHVHCRGLETSLAECTFTKRRTMGYQDFADVVCYTQKADSPMDDFFQCVNGKYISQMKACDGINDCGDQSDELCCKACQGKGFHCKSGVCIPSQYQCNGEVDCITGEDEVGCAGFASVTQEETEILTADMDAERRRIKSLLPKLSCGVKNRMHI
chain 2: TVGGKRAQLGDLPWQVAIKDASGITCGGIYIGGCWILTAAHCLRASKTHRYQIWTTVVDWIHPDLKRIVIEYVDRIIFHENYNAGTYQNDIALIEMKKDGNKKDCELPRSIPACVPWSPYLFQPNDTCIVSGWGREKDNERVFSLQWGEVKLISNCSKFYGNRFYEKEMECAGTYDGSIDACKGDSGGPLVCMDANNVTYVWGVVSWGENCGKPEFPGVYTKVANYFDWISYHVGRPFISQYNV
